Test results from US10513547B2, “Peptides and combination of peptides and scaffolds thereof for use in immunotherapy against colorectal carcinoma (CRC) and other cancers” (Immatics Biotechnologies GmbH, priority 2015, dated 2019).

These substances were tested against HLA-A*02:01 (Homo sapiens, UniProt P04439, D140Y/D185E/D98H/E176V/E277Q/G131W/G231S/I119V/I121R/I166T/I218V/L300P/L318F/N151K/N90K/P208A/P217A/Q86G/Q94H/R138H/R169H/T345S) (assay: MHC binding assay (UV-ligand exchange, beta2m ELISA, peptide exchange yield)). Details: binding to HLA-A*02:01.
Source text: Candidate peptides for T cell based therapies according to the present invention were further tested for their MHC binding capacity (affinity). The individual peptide-MHC complexes were produced by UV-ligand exchange, where a UV-sensitive peptide is cleaved upon UV-irradiation, and exchanged with the peptide of interest as analyzed. Only peptide candidates that can effectively bind and stabilize the peptide-receptive MHC molecules prevent dissociation of the MHC complexes. To determine the yield of the exchange reaction, an ELISA was performed based on the detection of the light chain ([…]) of stabilized MHC complexes. The assay was performed as generally described in Rodenko et al. (Rodenko et al., 2006).
96 well MAXISorp plates (NUNC) were coated over night with 2 ug/ml streptavidin in PBS at room temperature, washed 4× and blocked for 1 h at 37° C. in 2% BSA containing blocking buffer. Refolded HLA-A*02:01/MLA-001 monomers served as standards, covering the range of 15-500 ng/ml. Peptide-MHC monomers of the UV-exchange reaction were diluted 100 fold in blocking buffer. Samples were incubated for 1 h at 37° C., washed four times, incubated with 2 ug/ml HRP conjugated anti-β2m for 1 h at 37° C., washed again and detected with TMB solution that is stopped with […]. Absorption was measured at 450 nm. Candidate peptides that show a high exchange yield (preferably higher than 50%, most preferred higher than 75%) are generally preferred for a generation and production of antibodies or fragments thereof, and/or T cell receptors or fragments thereof, as they show sufficient avidity to the MHC molecules and prevent dissociation of the MHC complexes.

Row | Substance | Peptide exchange (MHC class I binding score, peptide exchange yield)
1 | 119 (ILYQTVTGL; listed as Homo sapiens) [compound 119] | “++” (≥20% = ++)
2 | 165 (RLLDFPEAMVL; listed as Homo sapiens) [compound 165] | “++++” (≥75% = ++++)
3 | 155 (RLLGEEVVRV; listed as Homo sapiens) [compound 155] | “+++” (≥50 = +++)
4 | 53 (FLLGSEIKL; listed as Homo sapiens) [compound 53] | “+++” (≥50 = +++)
5 | 94 (KSMDIVLTV; listed as Homo sapiens) [compound 94] | “+++” (≥50 = +++)
6 | 74 (YLMGFLHAV; listed as Homo sapiens) [compound 74] | “+++” (≥50 = +++)
7 | 101 (GLSEGHTFQV; listed as Homo sapiens) [compound 101] | “+++” (≥50 = +++)
8 | 153 (ILFSEDSTKLFV; listed as Homo sapiens) [compound 153] | “+++” (≥50 = +++)
9 | 34 (ILLEKSVSV; listed as Homo sapiens) [compound 34] | “+++” (≥50 = +++)
10 | 61 (KLLKLFQGV; listed as Homo sapiens) [compound 61] | “+++” (≥50 = +++)
11 | 171 (RLQETEGMVAV; listed as Homo sapiens) [compound 171] | “++” (≥20% = ++)
12 | 98 (AMNGKSFSV; listed as Homo sapiens) [compound 98] | “++” (≥20% = ++)
13 | 105 (YALDLSTFL; listed as Homo sapiens) [compound 105] | “+++” (≥50 = +++)
14 | 23 (FLDANGHFV; listed as Homo sapiens) [compound 23] | “+++” (≥50 = +++)
15 | 70 (MISELEVRL; listed as Homo sapiens) [compound 70] | “+++” (≥50 = +++)
16 | 36 (GLLESPSIFNFTA; listed as Homo sapiens) [compound 36] | “+++” (≥50 = +++)
17 | 24 (VLDGVLMEL; listed as Homo sapiens) [compound 24] | “+++” (≥50 = +++)
18 | 118 (LLADLKTMV; listed as Homo sapiens) [compound 118] | “+++” (≥50 = +++)
19 | 54 (ALLNGEYLLAA; listed as Homo sapiens) [compound 54] | “+++” (≥50 = +++)

Row | Substance | Peptide exchange (MHC class I binding score, peptide exchange yield)
20 | 88 (KLDIKVETV; listed as Homo sapiens) [compound 88] | “++++” (≥75% = ++++)
21 | 158 (GLLDPSVFHV; listed as Homo sapiens) [compound 158] | “+++” (≥50 = +++)
22 | 86 (KVFPGKISV; listed as Homo sapiens) [compound 86] | “++” (≥20% = ++)
23 | 108 (SLAELVPGVGGI; listed as Homo sapiens) [compound 108] | “+++” (≥50 = +++)
24 | 174 (ILLDDNMQIRL; listed as Homo sapiens) [compound 174] | “++++” (≥75% = ++++)
25 | 131 (KLLDVVHPA; listed as Homo sapiens) [compound 131] | “++” (≥20% = ++)
26 | 152 (KLLAVIHEL; listed as Homo sapiens) [compound 152] | “++” (≥20% = ++)
27 | 33 (ALWEKNTHL; listed as Homo sapiens) [compound 33] | “+++” (≥50 = +++)
28 | 90 (GLLKPGLNVVL; listed as Homo sapiens) [compound 90] | “+++” (≥50 = +++)
29 | 175 (TLLGGKEAQALGV; listed as Homo sapiens) [compound 175] | “+++” (≥50 = +++)
30 | 144 (LLNDRIWLA; listed as Homo sapiens) [compound 144] | “+++” (≥50 = +++)
31 | 51 (QVWEIQHTV; listed as Homo sapiens) [compound 51] | “++” (≥20% = ++)
32 | 89 (SLIEYEFRV; listed as Homo sapiens) [compound 89] | “+++” (≥50 = +++)
33 | 83 (LTIEDGIFEV; listed as Homo sapiens) [compound 83] | “+++” (≥50 = +++)
34 | 87 (LLFDAPDLRL; listed as Homo sapiens) [compound 87] | “+++” (≥50 = +++)
35 | 167 (SVIDHIHLISV; listed as Homo sapiens) [compound 167] | “+++” (≥50 = +++)
36 | 60 (VLDEDEPRFL; listed as Homo sapiens) [compound 60] | “++” (≥20% = ++)
37 | 103 (FLFGYPKRL; listed as Homo sapiens) [compound 103] | “++” (≥20% = ++)
38 | 178 (YLFREPATI; listed as Homo sapiens) [compound 178] | “++” (≥20% = ++)

Row | Substance | Peptide exchange (MHC class I binding score, peptide exchange yield)
39 | 96 (KLYSRLVYV; listed as Homo sapiens) [compound 96] | “++” (≥20% = ++)
40 | 163 (RLLHEVQEL; listed as Homo sapiens) [compound 163] | “+++” (≥50 = +++)
41 | 67 (SLNDLEKDVMLL; listed as Homo sapiens) [compound 67] | “+++” (≥50 = +++)
42 | 140 (LLNEILEQV; listed as Homo sapiens) [compound 140] | “+++” (≥50 = +++)
43 | 56 (VLFTDEGVPKFL; listed as Homo sapiens) [compound 56] | “++” (≥20% = ++)
44 | 41 (ILDDSFKLL; listed as Homo sapiens) [compound 41] | “++” (≥20% = ++)
45 | 63 (KLFSILSTV; listed as Homo sapiens) [compound 63] | “++” (≥20% = ++)
46 | 30 (GLSSAYGGL; listed as Homo sapiens) [compound 30] | “+” (≥10% = +)
47 | 183 (TLQEVVTGV; listed as Homo sapiens) [compound 183] | “+++” (≥50 = +++)
48 | 6 (FLAELPGSLSL; listed as Homo sapiens) [compound 6] | “+++” (≥50 = +++)
49 | 116 (LVYQFVHPI; listed as Homo sapiens) [compound 116] | “++” (≥20% = ++)
50 | 182 (SLNKWIFTV; listed as Homo sapiens) [compound 182] | “++++” (≥75% = ++++)
51 | 28 (ALTEIQEFI; listed as Homo sapiens) [compound 28] | “++++” (≥75% = ++++)
52 | 159 (VLVDDDGIKVV; listed as Homo sapiens) [compound 159] | “++” (≥20% = ++)
53 | 114 (TAVGHALVL; listed as Homo sapiens) [compound 114] | “+” (≥10% = +)
54 | 162 (KLMDYIDEL; listed as Homo sapiens) [compound 162] | “+++” (≥50 = +++)
55 | 84 (SMVEDITGLRL; listed as Homo sapiens) [compound 84] | “+++” (≥50 = +++)
56 | 147 (TLTELRAFL; listed as Homo sapiens) [compound 147] | “++++” (≥75% = ++++)
